Molecular target: native OmpL1, 31-kDa outer membrane protein of Leptospira alstoni (Leptospira alstoni)
Test: immunoelectron microscopy of intact L. alstoni, protein G-colloidal gold (control serum)

Question: Which gold particles per twenty organisms (particles per twenty organisms) does the source give for “preimmune serum from the same rabbit as the anti-OmpL1 antiserum (control serum)” here?
Answer: 1
